{"source": "paper doi:10.1101/247270", "target": "Dansyl-calmodulin (dansyl-CaM), purified, P0DP23", "assay": "other fluorescence titration", "conditions": "remark: other sources report otherwise"}
{"binder": "Regulator of G Protein Signaling 14 (RGS14), purified recombinant protein, O08773 1-544 (natural protein, here or on the partner: dansyl label (position not given)) MPGKPKHLGVPNGRMVLAVSDGELTSTSGSQAQGEGRGSSLSIHSLPSGPSSPFSTDEQPVASWAQSFERLLQDPRGLAYFTEFLKKEFSAENVTFWQACERFQQIPASDTKQLAQEAHNIYHEFLSSQALSPVNIDRQAWLSEEVLAQPRPDMFRAQQLQIFNLMKFDSYARFVKSPLYQECLLAEAEGRPLREPGSSHLGSPDTARKKPKLKPGKSLPLGVEELGQLPLAEGRPLRKSFRREMPGGAVNSALRRESQGSLNSSASLDLGFLAFVSSKSESHRKSLGSGEGESESRPGKYCCVYLPDGTASLALARPGLTIRDMLAGICEKRGLSLPDIKVYLVGKEQKALVLDQDCTVLADQEVRLENRITFQLELVGLERVVRISAKPTKRLQEALQPILAKHGLSLDQVVLHRPGEKQLVDLENLVSSVASQTLVLDTLPDAKTREASSIPPCRSQGCLPRTQTKDSHLPPLSSSLSVEDASGSTGKRQTCDIEGLVELLNRVQSSGAHDQRGLLRKEDLVLPEFLQLPSQRPGSQEAPP", "values": [{"measurement": "stoichiometry N", "value": 1}]}
